Assay results published in US20050136004A1 (ZymoGenetics, published 2005).

T1: IL-20RA/IL-20RB heterodimeric receptor (human), on cells (human, UniProt Q9UHF4 30-553; Q6UXL0 30-311)
T1 sequence 1: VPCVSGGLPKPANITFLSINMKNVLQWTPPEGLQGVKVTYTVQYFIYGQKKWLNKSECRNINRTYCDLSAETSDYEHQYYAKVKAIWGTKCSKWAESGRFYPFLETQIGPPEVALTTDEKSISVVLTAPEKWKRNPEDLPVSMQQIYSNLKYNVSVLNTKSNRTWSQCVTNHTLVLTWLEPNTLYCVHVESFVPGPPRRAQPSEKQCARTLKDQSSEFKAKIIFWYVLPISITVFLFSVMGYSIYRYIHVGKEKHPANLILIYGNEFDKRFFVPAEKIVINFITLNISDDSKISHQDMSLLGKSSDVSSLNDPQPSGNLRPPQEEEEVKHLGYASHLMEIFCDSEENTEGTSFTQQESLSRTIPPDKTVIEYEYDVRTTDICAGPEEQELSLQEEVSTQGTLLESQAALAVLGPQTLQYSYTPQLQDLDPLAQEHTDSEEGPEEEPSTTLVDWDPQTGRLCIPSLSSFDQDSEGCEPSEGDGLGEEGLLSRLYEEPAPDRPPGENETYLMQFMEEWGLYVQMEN
T1 sequence 2: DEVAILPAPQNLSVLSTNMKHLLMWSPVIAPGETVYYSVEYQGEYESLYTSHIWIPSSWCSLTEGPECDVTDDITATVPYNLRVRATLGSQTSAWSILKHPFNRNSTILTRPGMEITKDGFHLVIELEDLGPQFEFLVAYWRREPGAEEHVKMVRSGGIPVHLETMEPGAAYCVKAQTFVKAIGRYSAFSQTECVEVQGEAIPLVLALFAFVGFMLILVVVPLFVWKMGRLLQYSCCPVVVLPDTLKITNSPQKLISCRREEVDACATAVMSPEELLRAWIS

T2: IL-20RB (human), on cells (human, UniProt Q6UXL0 30-311)
T2 construct: This id covers the subunit expressed alone on BHK or BaF3/KZ134 transfectants; It is also used for endogenous IL-20RB on THP-1 cells; also called DIRS1; pDIRS1
T2 sequence: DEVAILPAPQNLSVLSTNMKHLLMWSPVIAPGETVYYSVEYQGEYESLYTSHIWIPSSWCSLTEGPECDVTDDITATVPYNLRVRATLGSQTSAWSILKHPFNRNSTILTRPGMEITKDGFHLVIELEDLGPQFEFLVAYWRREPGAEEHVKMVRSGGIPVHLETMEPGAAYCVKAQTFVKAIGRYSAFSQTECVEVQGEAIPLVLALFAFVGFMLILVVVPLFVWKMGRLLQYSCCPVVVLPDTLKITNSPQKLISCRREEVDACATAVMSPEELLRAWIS

T3: IL-20RA (human), on cells (human, UniProt Q9UHF4 30-553)
T3 construct: This id covers the subunit expressed alone on BHK or BaF3/KZ134 transfectants; It is also used for endogenous IL-20RA on human monocytic cells and in human lung tissue; also called ZcytoR7; IL-20RA only
T3 sequence: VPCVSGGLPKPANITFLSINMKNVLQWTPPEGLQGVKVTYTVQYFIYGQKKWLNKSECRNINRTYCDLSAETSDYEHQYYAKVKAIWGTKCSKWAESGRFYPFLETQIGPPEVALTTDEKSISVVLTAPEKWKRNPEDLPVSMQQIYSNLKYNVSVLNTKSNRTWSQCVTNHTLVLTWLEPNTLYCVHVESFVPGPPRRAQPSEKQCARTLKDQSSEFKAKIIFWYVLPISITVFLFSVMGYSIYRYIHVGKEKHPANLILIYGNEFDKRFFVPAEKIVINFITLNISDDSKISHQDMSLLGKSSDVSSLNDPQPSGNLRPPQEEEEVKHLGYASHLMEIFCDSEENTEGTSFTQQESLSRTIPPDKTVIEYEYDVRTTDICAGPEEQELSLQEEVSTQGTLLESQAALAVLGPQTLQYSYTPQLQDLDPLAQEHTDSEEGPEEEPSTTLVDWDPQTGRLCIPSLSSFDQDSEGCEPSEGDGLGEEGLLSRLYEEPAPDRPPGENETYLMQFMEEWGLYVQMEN


Tests used:
[1] = target: T1, IL-20RA/IL-20RB heterodimeric receptor …; test: cell-based or functional assay
[2] = target: T1, IL-20RA/IL-20RB heterodimeric receptor …; test: 125I-IL-20 binding on BHK cells expressing IL-20RA and IL-20RB
Protocol: (§1) The specificity and affinity of IL-20 for its receptor was determined using BHK cells stably transfected with IL-20RA, IL-20RB or both receptor subunits. […] Binding of ¹²⁵I-labeled IL-20 was eliminated in the presence of 100-fold excess of unlabeled IL-20 but not with 100-fold excess of the unrelated cytokine, IL-21.

[3] = target: T2, IL-20RB (human), on cells; test: radiolabeled ligand binding on stably transfected BHK cells
Protocol: as §1

[4] = target: T3, IL-20RA (human), on cells; test: as above
Protocol: as §1

Binder | Alamar Blue proliferation of BaF3/KZ134/IL-20RA/IL-20RB cells at 1 pM IL-20 [1] [fold over background] | Alamar Blue proliferation of BaF3/KZ134/IL-20RA/IL-20RB cells at 1 nM IL-20 [1] [fold over background] | Kd [2] [nM] | binding result [3] | binding result [4]
human IL-20-Bv (purified mature recombinant human IL-20 produced in Baculovirus) (ligand) LKTLNLGSCVIATNLQEIRNGFSDIRGSVQAKDGNIDIRILRRTESLQDTKPANRCCLLRHLLRLYLDRVFKNYQTPDHYTLRKISSLANSFLTIKKDLRLCHAHMTCHCGEEAMKKYSQILSHFEKLEPQAAVVKALGELDILLQWMEETE | 2 | ~30 | – | – | –
IL-20 (human IL-20, mature polypeptide; preparation or host not specified) (ligand, also called Zcyto10; IL-20 protein) LKTLNLGSCVIATNLQEIRNGFSDIRGSVQAKDGNIDIRILRRTESLQDTKPANRCCLLRHLLRLYLDRVFKNYQTPDHYTLRKISSLANSFLTIKKDLRLCHAHMTCHCGEEAMKKYSQILSHFEKLEPQAAVVKALGELDILLQWMEETE | – | – | ~1.5 | no binding | no binding
